From patent US6475775B1, “PARG, a GTPase activating protein which interacts with PTPL1” (Ludwig Institute for Cancer Research, priority 1997, dated 2002)

B1: GST-GAP fusion protein: GAP domain, amino acid residues 658-898 of PARG, produced as a GST fusion protein in E. coli (protein)
chain: GHQKLPGKIHLFGAEFTLVAKKEPDGIPFILKICASEIENRALCLQGIYRVCGNKIKTEKLCLALENGMHLVDISEFSSHDICDVLKLYLRQLPEPFILFRLYKEFIDLAKEIQHVNEEQETKKNSLEDKKWPNMCIEINRILLKSKDLLRQLPASNFNSLHFLIVHLKRVVDHAEENKMNSKNLGVIFGPSLIRPRPQTAPITISSLAEYSNQARLVEFLITYSQKIFDGSLQPQDVMCS
modifications: left off: a dimerising Fc or GST
notes: GAP domain, amino acid residues 658-898 of PARG, produced as a GST fusion protein in E. coli

How the values were obtained:
GST-PDZ 4-5 of PTPL1 = target: T1, GST-PDZ 4-5 of PTPL1 (Homo sapiens, UniProt Q12923); experiment: Binding of GST-PDZ fusion proteins to C-terminal PARG peptide; conditions: peptide on Affigel 15 beads; 50 nM fusion protein; 4° C., 2 h; α-GST immunoblot
T1 construct: GST-PDZ 4-5, residues 1762-1960; made in house; host or cells: E. coli
T1 sequence (Q12923 1762-1960 isoform Q12923-3): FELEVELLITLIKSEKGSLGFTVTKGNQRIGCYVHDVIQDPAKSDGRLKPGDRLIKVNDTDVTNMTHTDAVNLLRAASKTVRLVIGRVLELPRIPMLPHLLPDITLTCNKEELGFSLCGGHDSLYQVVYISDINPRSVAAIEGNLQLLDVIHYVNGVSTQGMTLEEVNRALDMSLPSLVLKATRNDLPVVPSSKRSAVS
From the text: (§1) To identify proteins that bind to the PDZ domains of PTPL1, regions of PTPL1 cDNA corresponding to the various PDZ domains were produced by polymerase chain reaction and subcloned into the GST fusion protein expression vector pGEX1λT (Pharmacia): GST-PDZ 1. amino acid residues 1066-1166 of PTPL1; GST-PDZ 2-3. residues 1340-1579; GST-PDZ 3, residues 1469-1579; GST-PDZ 4, residues 1762-1864; GST-PDZ 4-5, residues 1762-1960 and GST-PDZ 5, residues 1856-1960 (FIG. 1A). Domains and motifs indicated in FIG. 1A are: L, leucine zipper motif; Band 4.1, a domain of 300 amino acid residues with homology to the Band 4.1 superfamily; P, PDZ domain; PTP, protein tyrosine phosphatase catalytic domain; GST, glutathione S-transferase. The different expression vector constructs were transformed into E. coli. Glutathione S-transferase (GST) fusion proteins were produced and purified as described by Ridley and Hall (Cell 70: 389-399, 1992) and then subjected to sodium dodecyl sulfate (SDS)-gel electrophoresis.
(§2) It has been shown that PDZ domains interact with the C-terminal ends of short peptides and that a valine residue at the absolute C-terminal end is important for binding (Kim et al., 1995; Komau et al., 1995; Saras et al., in preparation). […]

[1] = target: T2, PDZ 4 of PTPL1 (GST-PDZ 4) (Homo sapiens, UniProt Q12923); experiment: as above; conditions: peptide on Affigel 15 beads; 50 nM fusion protein; 4° C., 2 h; α-GST immunoblot
T2 construct: GST-PDZ 4, residues 1762-1864; made in house; host or cells: E. coli
T2 sequence (Q12923 1762-1864 isoform Q12923-3): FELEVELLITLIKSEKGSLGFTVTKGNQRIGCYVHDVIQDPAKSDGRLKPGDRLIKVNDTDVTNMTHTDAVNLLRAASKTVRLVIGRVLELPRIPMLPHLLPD
From the text: as §1, §2

Cdc42 = target: T3, Cdc42 (Homo sapiens, UniProt P60953); experiment: GAP activity of PARG GAP domain (GTP hydrolysis, filter binding); format: biochemical; conditions: Cdc42 preloaded with γ-32P-GTP, 30° C.
T3 construct: GST (N, cleaved yes); made in house; host or cells: E. coli
From the text: (§3) In order to determine the GAP activity of PARG on proteins of the Rho family, the GAP domain of PARG was produced as a GST fusion protein in E. coli (FIG. 5A). Briefly, a DNA fragment coding for the GAP domain, i.e., amino acid residues 658-898, of PARG was produced by polymerase chain reaction and subcloned into pGEX1λT and referred to as GST-GAP. pGEX2T-based expression vectors containing RhoA, Rac1 and Cdc42 (G25K isoform) cDNAs were obtained from Dr. A. Hall (MRC Laboratory for Molecular Cell Biology and Department of Biochemistry, University College London, UK). These different expression vector constructs were transformed into E. coli. The GST fusion proteins were produced and purified essentially as described above in Example 1. Recombinant Rho, Rac and Cdc42 proteins were subjected to thrombin cleavage (Ridley and Hall, 1992).
(§4) Recombinant Rho, Rac and Cdc42 were preloaded with γ-^32P-GTP and incubated for various time periods in the presence of the GST-GAP fusion protein or, as control, GST protein. Thereafter, the radioactivity bound to the GTPase was determined as a measurement of the GTP hydrolysis activity. Briefly, 200 nM aliquots of recombinant Rho, Rac and Cdc42 were incubated at 30° C. with 10 μCi γ-^32P-GTP in 20 mM Tris-HCI, pH 7.5, 25 mM NaCl, 4 mM EDTA, 0.1 mM dithiothreitol, and the nucleotide exchange was stopped after 10 min by the addition of 17 mM MgCl2. Proteins (100 nM GST, 1 nM or 20 nM of GST-GAP fusion protein) were added to the reaction mixture and aliquots of 5 μl were withdrawn and collected on nitrocellulose filters (HA, Millipore, Bedford, Mass.) at 3 min intervals. The filters were washed with cold buffer (50 mM Tris-HCI pH 7.5, 50 mM NaCl, 5 mM MgCl2), dried and subjected to scintillation counting. The amount of protein-bound radioactivity is expressed as the percentage of the total input.

Rac = target: T4, Rac (Homo sapiens, UniProt P63000); experiment: as above; format: biochemical; conditions: Rac preloaded with γ-32P-GTP, 30° C.
T4 construct: GST (N, cleaved yes); made in house; host or cells: E. coli
From the text: as §3, §4

Rho = target: T5, Rho (Homo sapiens, UniProt P61586); experiment: as above; format: biochemical; conditions: 1 nM GST-GAP; Rho preloaded with γ-32P-GTP; 30° C.
T5 construct: GST (N, cleaved yes); made in house; host or cells: E. coli
From the text: as §3, §4

T3 sequence (P60953 1-191 isoform P60953-1): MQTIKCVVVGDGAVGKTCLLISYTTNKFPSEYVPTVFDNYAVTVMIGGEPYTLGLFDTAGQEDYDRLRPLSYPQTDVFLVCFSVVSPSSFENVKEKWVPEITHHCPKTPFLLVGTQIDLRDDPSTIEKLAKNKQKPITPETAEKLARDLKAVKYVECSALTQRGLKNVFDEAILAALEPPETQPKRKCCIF
T5 sequence (P61586 whole entry): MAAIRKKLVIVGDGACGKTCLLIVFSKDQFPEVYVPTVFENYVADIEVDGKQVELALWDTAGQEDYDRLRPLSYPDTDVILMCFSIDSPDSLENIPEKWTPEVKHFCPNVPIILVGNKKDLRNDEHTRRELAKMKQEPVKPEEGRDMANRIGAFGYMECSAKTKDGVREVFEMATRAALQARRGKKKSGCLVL

Molecule | binding of GST-PDZ 4-5 to the peptide (GST-PDZ 4-5 of PTPL1) | binding of GST-PDZ 4 to the peptide [1] | GAP activity on Cdc42 (Cdc42; 1 nM GST-GAP) | GAP activity on Cdc42 (Cdc42; 20 nM GST-GAP) | GAP activity on Rac (Rac; 1 nM GST-GAP) | GAP activity on Rac (Rac; 20 nM GST-GAP) | GAP activity on Rho (Rho)
PQFV (listed as Homo sapiens) [synthetic peptide, last 4 C-terminal amino acid residues of PARG] | bound | bound |  |  |  |  | 
B1 |  |  | no GAP activity | active | no GAP activity | active | strong GAP activity
